The text below walks through data of US20120128635.

In data set [1] the test system is ZFN SBS#11004 (N2 pair) (synthetic construct). Put plainly: cell_activity. The following applies: Cel-I assay in K562 day 3, as pair with SBS#9802; 34-47% in LP mouse liver in vivo (p174).
Data set [2] deals with ZFN SBS#9802 (N2 pair) (synthetic construct). Put plainly: cell_activity. To be noted: Cel-I assay in K562 day 3, as pair with SBS#11004; 34-47% in LP mouse liver in vivo (p174).

Consider “GTACTAGGGGTATGGGGATAAACCAGAC (double strand) [hF9 intron 1 target of SBS#11004]”, for which, in data set [1], the activity (% alleles cleaved) worked out at 30. On to “TGACACAGTACCTGGCACCATAGTTGTA (double strand) [hF9 intron 1 target of SBS#9802]”, for which, in data set [2], the activity (% alleles cleaved) was found to be 30.
